The text below walks through data of patent US11046981B2, “Host cell modified to produce lactams” (The Regents of the University of California, priority 2016, dated 2021).

The target of series [1] is T1, ORF27 (Streptomyces aizunensis, UniProt Q52V65).
T1 sequence (Q52V65 1-470): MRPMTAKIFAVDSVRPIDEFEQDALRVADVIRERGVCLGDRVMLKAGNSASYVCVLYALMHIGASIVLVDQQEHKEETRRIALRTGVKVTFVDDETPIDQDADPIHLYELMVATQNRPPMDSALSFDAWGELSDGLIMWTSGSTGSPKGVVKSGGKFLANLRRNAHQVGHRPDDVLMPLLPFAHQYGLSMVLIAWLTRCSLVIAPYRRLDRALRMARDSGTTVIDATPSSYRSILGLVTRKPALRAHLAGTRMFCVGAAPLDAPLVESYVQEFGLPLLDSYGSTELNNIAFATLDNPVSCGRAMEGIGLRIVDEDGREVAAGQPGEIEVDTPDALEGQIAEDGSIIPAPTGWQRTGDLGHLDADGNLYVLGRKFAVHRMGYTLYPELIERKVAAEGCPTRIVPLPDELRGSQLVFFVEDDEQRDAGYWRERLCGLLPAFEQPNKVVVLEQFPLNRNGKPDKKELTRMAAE
Kind of series: In vitro ORF27 lactam formation with ATP or ADP, product analysis by HPLC-MS. Type of series: biochemical. The settings on record: ADP instead of ATP to activate ω-amino fatty acids. The protocol:
(§1) To compare formation of various lactams by ORF27, a reaction mixture containing […] of ORF27, 5 mM ω-amino fatty acids substrates, 1 mM ATP or ADP, 0.5 mM CoASH and 1 mM Mg(CI)2 in 100 mM HEPES (pH=8) was incubated at 25° C. The reactions were quenched by addition of methanol to a final concentration of 50% (v/v) at multiple time points (0 min, 15 min, 1 h, 2 h, 4 h and 19 h). The resulting quenched reactions were kept at 4° C. and filtered through 10 K Amicon Ultra-0.5 mL Centrifugal Filters (Millipore) at 8000×g for 30 min. The filtered solutions were analyzed for lactams and nucleotides using HPLC-MS. Control reactions were carried out without enzyme, without substrate, without ATP, without CoASH or without MgCl2 (supplying additional 0.2 mM EDTA to chelate Mg^2+ ions from purified protein stock). Caprolactam, valerolactam and butyrolactam, AMP, ADP and ATP were purchased as standards from Sigma-Aldrich. The pH dependence of ORF27-catalyzed butrylactam formation was determined using an end-point assay, and the amount of butyrolactam was determined using the HPLC-MS method described above.
The ORF27-catalyzed lactam formation reaction in vitro was monitored for both nucleotide and lactam products, using either ATP or ADP as the energy source. […] In the absence of ORF27, ATP remained stable throughout the reaction (FIG. 6A). […]

Series [2] concerns the target T1, ORF27. Briefly: ATP-PPi release assay for ORF27 (substrate range, steady state parameters). It counts as biochemical. The settings on record: substrates with a negatively charged group on the ω-terminal end. The protocol: The substrate range of ORF27 was determined by ATP-PPi release assays as previously described (12). Without prior knowledge about the reaction pathways, the ATP-PPi assay served a semi-quantitative method to compare substrate induced acceleration of ATP consumption. For kinetic investigation of ORF27 activity with different substrates, the inorganic pyrophosphate released by enzymatic reaction was measured continuously using the EnzChek Pyrophosphate Assay Kit (Invitrogen). A typical assay contained in a total volume of 150 μL: 5 μM of ORF27, 0-20 mM substrates, 1 mM ATP, 1 mM CoASH and 1 mM Mg(Cl)2 in 100 mM HEPES, pH 7.5. 2-amino-6-mercapto-7-methylpurine ribonucleoside (MESG) substrate, purine nucleoside phosphorylase and inorganic pyrophosphatase were added according to the protocol. Reactions were initiated by the addition of ATP and monitored at 360 nm with SpectraMax M2 (Molecular Devices, Sunnyvale, Calif.). Initial velocities were calculated using the standard curve for inorganic pyrophosphate. For each concentration, control reactions were carried out without enzyme or without ATP. The rates of PPi release were converted to observed rates, and the Michaelis-Menten kinetic parameters were obtained. […]
The sensitivity of the ATP-PPi release assay (5 μM Pi) allowed the initial velocity to be determined within the first 2 min of reaction incubation. […]

Series [3] is described as follows: Solubility noted during preparation of substrate stock solution. As to conditions: under neutral pH; HCl added to obtain 100 mM stock solution in pH ~2.0. It counts as physicochemical. From the text:
(§2) The acids assayed were glutamic acid, γ-aminobutyrate (GABA), 4-guanidinobutyric acid, (S)-3-hydroxyl-butyric acid, valeric acid, 4-methyl-hexanoic acid, 3-aminobutyric acid, 6-aminocaproic acid, 6-guanidinohexanoic acid, glutaric acid, adipic acid, 2-aminobutyric acid and (Sigma-Aldrich, St. Louis, Mo.).

Substrate in series [4]: CCC(N)C(=O)O
Briefly: ATP-PPi release assay for ORF27 (substrate range, steady state parameters). It counts as biochemical, Streptomyces aizunensis. As to conditions: other: 100 mM HEPES, pH 7.5 at 25° C. The protocol: (§3) The substrate range of ORF27 was determined by ATP-PPi release assays as previously described (12). Without prior knowledge about the reaction pathways, the ATP-PPi assay served a semi-quantitative method to compare substrate induced acceleration of ATP consumption. For kinetic investigation of ORF27 activity with different substrates, the inorganic pyrophosphate released by enzymatic reaction was measured continuously using the EnzChek Pyrophosphate Assay Kit (Invitrogen). A typical assay contained in a total volume of 150 μL: 5 μM of ORF27, 0-20 mM substrates, 1 mM ATP, 1 mM CoASH and 1 mM Mg(Cl)2 in 100 mM HEPES, pH 7.5. 2-amino-6-mercapto-7-methylpurine ribonucleoside (MESG) substrate, purine nucleoside phosphorylase and inorganic pyrophosphatase were added according to the protocol. Reactions were initiated by the addition of ATP and monitored at 360 nm with SpectraMax M2 (Molecular Devices, Sunnyvale, Calif.). Initial velocities were calculated using the standard curve for inorganic pyrophosphate. For each concentration, control reactions were carried out without enzyme or without ATP. The rates of PPi release were converted to observed rates, and the Michaelis-Menten kinetic parameters were obtained.
as §2
(§4) The sensitivity of the ATP-PPi release assay (5 μM Pi) allowed the initial velocity to be determined within the first 2 min of reaction incubation. During this time period, ATP hydrolysis activity by ORF27 was not observed according to the ATP-PPi assay (ATP hydrolysis was observed over longer period of time though, see discussion below).

Substrate in series [5]: N=C(N)NCCCCCC(=O)O
The series is described as above. Type of series: biochemical, Streptomyces aizunensis. As to conditions: other: 100 mM HEPES, pH 7.5 at 25° C. The protocol:
as §3, §2, §4

Substrate in series [6]: NCCCC(=O)O
The description is as above. It counts as biochemical, Streptomyces aizunensis. As to conditions: other: 100 mM HEPES, pH 7.5 at 25° C. The protocol:
as §3, §2, §4

Substrate in series [7]: NCCCCCC(=O)O
The description is as above. Type of series: biochemical, Streptomyces aizunensis. The settings on record: other: 100 mM HEPES, pH 7.5 at 25° C. The protocol:
as §3, §2, §4

Substrate in series [8]: CCCCC(=O)O
Described as above. It counts as biochemical, Streptomyces aizunensis. As to conditions: other: 100 mM HEPES, pH 7.5 at 25° C. On the procedure:
as §3, §2, §4

Substrate in series [9]: CCC(C)CCC(=O)O
The description is as above. It counts as biochemical, Streptomyces aizunensis. The settings on record: other: 100 mM HEPES, pH 7.5 at 25° C. The protocol:
as §3, §2, §4

Substrate in series [10]: N=C(N)NCCCC(=O)O
Described as above. Type of series: biochemical, Streptomyces aizunensis. The settings on record: other: 100 mM HEPES, pH 7.5 at 25° C. On the procedure: as §3, §2, §4

Series [11] can be described thus: pH profile of ORF27 catalyzed butyrolactam formation (end-point assay). It counts as biochemical. The protocol:
FIG. 8. pH profile of ORF27 catalyzed butyrolactam formation. A reaction mixture containing 5 μM ORF27, 1 mM GABA, 1 mM ATP, 1 mM CoASH and 1 mM Mg(Cl)2 in 100 mM HEPES (pH 7.5) was incubated at 25° C. for 30 min. The reaction was quenched by equal volume of methanol, and the filtered solution was analyzed by analytical method described above.
as §1, with “Caprolactam, valerolactam and butyrolactam, AMP, ADP and ATP were purchased as standards from Sigma-Aldrich.” left out

Take `Nc1ncnc2c1ncn2[C@@H]1O[C@H](COP(=O)(O)OP(=O)(O)O)[C@@H](O)[C@H]1O` [ADP]: the “rate of lactam formation with ADP relative to the similar reaction with ATP” value at ORF27 [1] is recorded as 20-50%.
With `O=C(O)CCCCC(=O)O` [adipic acid, Adipic acid], the “enzyme activity of ORF27 on the substrate” value on ORF27 [2] is recorded as “not observed”.
As for `O=C(O)CCCC(=O)O` [glutaric acid, Glutaric acid], at ORF27 [2], the “enzyme activity of ORF27 on the substrate” value was “not observed”.
Turning to `N=C(N)NCCCCCC(=O)O` [6-Guanidinohexanoic acid], the solubility result in series [3] was “low solubility”.

B1: ORF27 (Streptomyces aizunensis) (protein)
chain: MRPMTAKIFAVDSVRPIDEFEQDALRVADVIRERGVCLGDRVMLKAGNSASYVCVLYALMHIGASIVLVDQQEHKEETRRIALRTGVKVTFVDDETPIDQDADPIHLYELMVATQNRPPMDSALSFDAWGELSDGLIMWTSGSTGSPKGVVKSGGKFLANLRRNAHQVGHRPDDVLMPLLPFAHQYGLSMVLIAWLTRCSLVIAPYRRLDRALRMARDSGTTVIDATPSSYRSILGLVTRKPALRAHLAGTRMFCVGAAPLDAPLVESYVQEFGLPLLDSYGSTELNNIAFATLDNPVSCGRAMEGIGLRIVDEDGREVAAGQPGEIEVDTPDALEGQIAEDGSIIPAPTGWQRTGDLGHLDADGNLYVLGRKFAVHRMGYTLYPELIERKVAAEGCPTRIVPLPDELRGSQLVFFVEDDEQRDAGYWRERLCGLLPAFEQPNKVVVLEQFPLNRNGKPDKKELTRMAAE
The term Km denotes the substrate concentration at which the rate is half of its maximum. What is called kcat is the maximal rate divided by the concentration of active sites. Broadly, the kcat/Km is the turnover number divided by the Michaelis constant. Turning to B1, the Km in [4] amounted to 1630 µM; in series [5] it was 110 µM; in series [6] it was 17200 µM; in series [7] it was 56 µM; in series [8] it was 52200 µM; in [9], 12100 µM. In addition, the Michaelis-Menten constant (Km) in series [10] amounted to 13 µM. Further, the kcat in [4] worked out at 0.0006 s⁻¹; in [5], 0.0055 s⁻¹; in [6], 0.00583 s⁻¹; in [7] it was 0.00283 s⁻¹; in series [8], 0.0283 s⁻¹; in series [9], 0.0217 s⁻¹. In addition, the turnover number (kcat) in series [10] came to 0.002 s⁻¹. Further, the specificity constant (kcat/Km) in [4] worked out at 0.37 M⁻¹ s⁻¹; in series [5], 49 M⁻¹ s⁻¹; in [6], 0.338 M⁻¹ s⁻¹; in series [7] it was 49.4 M⁻¹ s⁻¹; in series [8] it was 0.543 M⁻¹ s⁻¹; in [9] it was 1.8 M⁻¹ s⁻¹. In series [10], the kcat/Km was 157 M⁻¹ s⁻¹. Further, the “pH below which the enzyme precipitated and became inactive” value in [11] is listed as “below 6.0”. The molecule also registered a pH optimum in series [11] of 8.0.
